The results in this text go back to the supplement of paper PMC5998384.

Data set [1] has as its system HeLa Kyoto. As to the kind of experiment: solubility in G1/S (NP-40 vs SDS abundance) (log2 ratio); higher = more soluble. To be noted: cell cycle stage: G1/S.
The test system of data set [2] is HeLa Kyoto. As to the kind of experiment: melting temperature (median over replicates), in situ; higher = more thermally stable.
The test system of data set [3] is HeLa Kyoto. Put plainly: solubility change mitosis vs G1/S (difference of NP-40 vs SDS log2 ratios) (log2 ratio difference); higher = more soluble in mitosis.
Data set [4] deals with HeLa Kyoto. As to the kind of experiment: thermal stability score vs G1/S (z-score of summed log2 fold changes over temperatures); higher = more thermally stable than in G1/S.
Where [5] appears, read: cell cycle stage: early G1 (4.5 h after nocodazole release).
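For melting temperature (median over replicates), in situ in this document: HeLa Kyoto cells synchronized by double thymidine or nocodazole block, proteins quantified by TMT10plex mass spectrometry, three independent biological replicates.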
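For solubility change mitosis vs G1/S (difference of NP-40 vs SDS log2 ratios) in this document: synchronized HeLa Kyoto cells (double thymidine block for G1/S, nocodazole release for mitosis), protein amounts in NP-40 versus SDS lysates quantified by mass spectrometry, three biological replicates.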
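For solubility in G1/S (NP-40 vs SDS abundance) in this document: HeLa Kyoto cells arrested at G1/S by double thymidine block, proteins quantified by TMT10plex mass spectrometry in mild NP-40 versus SDS extracts, three biological replicates.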
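For thermal stability score vs G1/S (z-score of summed log2 fold changes over temperatures) in this document: synchronized HeLa Kyoto cells, proteins quantified by TMT10plex mass spectrometry, three biological replicates, mitosis taken 0.5 h after nocodazole release, G1/S directly after double thymidine block.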

Chain of OCRL (chain, as listed by the source): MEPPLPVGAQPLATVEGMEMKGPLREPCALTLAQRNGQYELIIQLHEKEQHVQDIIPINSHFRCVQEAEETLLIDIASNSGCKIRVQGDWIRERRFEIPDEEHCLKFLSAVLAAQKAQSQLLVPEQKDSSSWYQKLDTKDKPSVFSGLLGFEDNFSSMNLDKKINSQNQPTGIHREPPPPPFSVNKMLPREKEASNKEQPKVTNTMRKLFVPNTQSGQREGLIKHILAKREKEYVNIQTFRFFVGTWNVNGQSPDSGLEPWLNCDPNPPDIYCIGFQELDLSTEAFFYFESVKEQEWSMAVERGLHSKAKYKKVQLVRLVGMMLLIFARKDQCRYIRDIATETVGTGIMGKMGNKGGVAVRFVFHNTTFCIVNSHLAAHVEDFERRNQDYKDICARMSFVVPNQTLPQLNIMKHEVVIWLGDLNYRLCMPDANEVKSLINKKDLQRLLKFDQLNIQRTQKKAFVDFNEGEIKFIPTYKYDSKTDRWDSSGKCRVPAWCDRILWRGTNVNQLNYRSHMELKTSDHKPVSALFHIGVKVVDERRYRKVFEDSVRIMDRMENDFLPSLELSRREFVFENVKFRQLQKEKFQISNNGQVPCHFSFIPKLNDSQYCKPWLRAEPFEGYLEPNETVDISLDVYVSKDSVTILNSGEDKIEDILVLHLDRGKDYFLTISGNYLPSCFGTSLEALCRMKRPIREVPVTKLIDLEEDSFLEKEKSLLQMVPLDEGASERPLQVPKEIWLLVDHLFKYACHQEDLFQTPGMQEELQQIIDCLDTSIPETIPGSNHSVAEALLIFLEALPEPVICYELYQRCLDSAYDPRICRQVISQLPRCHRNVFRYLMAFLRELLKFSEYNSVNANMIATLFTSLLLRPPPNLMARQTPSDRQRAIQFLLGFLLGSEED
Chain of CTSD (chain, as listed by the source): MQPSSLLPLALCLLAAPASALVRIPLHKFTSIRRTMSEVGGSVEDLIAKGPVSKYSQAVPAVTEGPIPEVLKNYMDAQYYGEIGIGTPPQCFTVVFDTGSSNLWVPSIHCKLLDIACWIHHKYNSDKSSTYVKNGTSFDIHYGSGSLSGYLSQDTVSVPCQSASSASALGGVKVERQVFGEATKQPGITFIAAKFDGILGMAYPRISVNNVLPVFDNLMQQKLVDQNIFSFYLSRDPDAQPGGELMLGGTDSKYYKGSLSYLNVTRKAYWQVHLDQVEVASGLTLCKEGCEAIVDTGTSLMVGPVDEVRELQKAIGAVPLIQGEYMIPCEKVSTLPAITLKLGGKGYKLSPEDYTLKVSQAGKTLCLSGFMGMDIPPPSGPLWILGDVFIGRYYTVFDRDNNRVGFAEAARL

For the substance “MEKRETFVQAVSKELVGEFLQFVQLDKEASDPFSLNELLDELSRKQKEELWQRLKNLLTDVLLESPVDGWQVVEAQGEDNMETEHGSKMRKSIEIIYAITSVILASVSVINESENYEALLECVIILNGILYALPESERKLQSSIQDLCVTWWEKGLPAKEDTGKTAFVMLLRRSLETKTGADVCRLWRIHQALYCFDYDLEESGEIKDMLLECFININYIKKEEGRRFLSCLFNWNINFIKMIHGTIKNQLQGLQKSLMVYIAEIYFRAWKKASGKILEAIENDCIQDFMFHGIHLPRRSPVHSKVREVLSYFHHQKKVRQGVEEMLYRLYKPILWRGLKARNSEVRSNAALLFVEAFPIRDPNLHAIEMDSEIQKQFEELYSLLEDPYPMVRSTGILGVCKITSKYWEMMPPTILIDLLKKVTGELAFDTSSADVRCSVFKCLPMILDNKLSHPLLEQLLPALRYSLHDNSEKVRVAFVDMLLKIKAVRAAKFWKICPMEHILVRLETDSRPVSRRLVSLIFNSFLPVNQPEEVWCERCVTLVQMNHAAARRFYQYAHEHTACTNIAKLIHVIRHCLNACIQRAVREPPEDEEEEDGREKENVTVLDKTLSVNDVACMAGLLEIIVILWKSIDRSMENNKEAKLYTINKFASVLPEYLKVFKDDRCKIPLFMLMSFMPASAVPPFSCGVISTLRSREEGAVDKSYCTLLDCLCSWGQVGHILELVDNWLPTEHAQAKSNTASKGRVQIHDTRPVKPELALVYIEYLLTHPKNRECLLSAPRKKLNHLLKALETSKADLESLLQTPGGKPRGFSEAAAPRAFGLHCRLSIHLQHKFCSEGKVYLSMLEDTGFWLESKILSFIQDQEEDYLKLHRVIYQQIIQTYLTVCKDVVMVGLGDHQFQMQLLQRSLGIMQTVKGFFYVSLLLDILKEITGSSLIQKTDSDEEVAMLLDTVQKVFQKMLECIARSFRKQPEEGLRLLYSVQRPLHEFITAVQSRHTDTPVHRGVLSTLIAGPVVEISHQLRKVSDVEELTPPEHLSDLPPFSRCLIGIIIKSSNVVRSFLDELKACVASNDIEGIVCLTAAVHIILVINAGKHKSSKVREVAATVHRKLKTFMEITLEEDSIERFLYESSSRTLGELLNS [NCAPG2]”, the “solubility in G1/S (log2)” value with HeLa Kyoto [1] was -0.313. Also, the melting temperature with HeLa Kyoto [2] (cell cycle stage: G1/S) is 49.1 °C; in the data set with HeLa Kyoto [2] (cell cycle stage: mitosis) it was 48.1 °C. Moreover, in the data set with HeLa Kyoto [3], the “solubility change mitosis (log2)” value is -0.0274. Besides, the thermal stability score in the data set with HeLa Kyoto [4] (setting [5]) came to 0.33; in the data set on HeLa Kyoto [4] (cell cycle stage: mitosis), 0.687.
With HTT, in the data set with HeLa Kyoto [1], the “solubility in G1/S (log2)” value is -0.145. For the same substance, the results for the melting temperature in the data set with HeLa Kyoto [2] (cell cycle stage: G1/S) and in the data set on HeLa Kyoto [2] (cell cycle stage: mitosis) were 50.6 °C and 50.7 °C, respectively. Further, the “solubility change mitosis (log2)” value in the data set with HeLa Kyoto [3] was -0.0881. For the same substance, the thermal stability score is -0.714 in the data set on HeLa Kyoto [4] (setting [5]) and -1.14 in the data set on HeLa Kyoto [4] (cell cycle stage: mitosis).
With “MSFSEMNRRTLAFRGGGLVTASGGGSTNNNAGGEASAWPPQPQPRQPPPPAPPALQPPNGRGADEEVELEGLEPQDLEASAGPAAGAAEEAKELLLPQDAGGPTSLGGGAGGPLLAERNRRTLAFRGGGGGGLGNNGSSRGRPETSVWPLRHFNGRGPATVDLELDALEGKELMQDGASLSDSTEDEEEGASLGDGSGAEGGSCSSSRRSGGDGGDEVEGSGVGAGEGETVQHFPLARPKSLMQKLQCSFQTSWLKDFPWLRYSKDTGLMSCGWCQKTPADGGSVDLPPVGHDELSRGTRNYKKTLLLRHHVSTEHKLHEANAQESEIPSEEGYCDFNSRPNENSYCYQLLRQLNEQRKKGILCDVSIVVSGKIFKAHKNILVAGSRFFKTLYCFSNKESPNQNNTTHLDIAAVQGFSVILDFLYSGNLVLTSQNAIEVMTVASYLQMSEVVQTCRNFIKDALNISIKSEAPESVVVDYNNRKPVNRDGLSSSRDQKIASFWATRNLTNLASNVKIENDGCNVDEGQIENYQMNDSSWVQDGSPEMAENESEGQTKVFIWNNMGSQGIQETGKTRRKNQTTKRFIYNIPPNNETNLEDCSVMQPPVAYPEENTLLIKEEPDLDGALLSGPDGDRNVNANLLAEAGTSQDGGDAGTSHDFKYGLMPGPSNDFKYGLIPGTSNDFKYGLIPGASNDFKYGLLPESWPKQETWENGESSLIMNKLKCPHCSYVAKYRRTLKRHLLIHTGVRSFSCDICGKLFTRREHVKRHSLVHKKDKKYKCMVCKKIFMLAASVGIRHGSRRYGVCVDCADKSQPGGQEGVDQGQDTEFPRDEEYEENEVGEADEELVDDGEDQNDPSRWDESGEVCMSLDD [ZBTB10]”, in the data set with HeLa Kyoto [1], the “solubility in G1/S (log2)” value was -0.114. In the data set with HeLa Kyoto [2] (cell cycle stage: mitosis), this substance registered a melting temperature of 53.4 °C. Moreover, the “solubility change mitosis (log2)” value with HeLa Kyoto [3] was -0.0451. Moreover, the thermal stability score in the data set on HeLa Kyoto [4] (setting [5]) is -0.229; in the data set on HeLa Kyoto [4] (cell cycle stage: mitosis), -0.231.
As to “MWIQVRTIDGSKTCTIEDVSRKATIEELRERVWALFDVRPECQRLFYRGKQLENGYTLFDYDVGLNDIIQLLVRPDPDHLPGTSTQIEAKPCSNSPPKVKKAPRVGPSNQPSTSARARLIDPGFGIYKVNELVDARDVGLGAWFEAHIHSVTRASDGQSRGKTPLKNGSSCKRTNGNIKHKSKENTNKLDSVPSTSNSDCVAADEDVIYHIQYDEYPESGTLEMNVKDLRPRARTILKWNELNVGDVVMVNYNVESPGQRGFWFDAEITTLKTISRTKKELRVKIFLGGSEGTLNDCKIISVDEIFKIERPGAHPLSFADGKFLRRNDPECDLCGGDPEKKCHSCSCRVCGGKHEPNMQLLCDECNVAYHIYCLNPPLDKVPEEEYWYCPSCKTDSSEVVKAGERLKMSKKKAKMPSASTESRRDWGRGMACVGRTRECTIVPSNHYGPIPGIPVGSTWRFRVQVSEAGVHRPHVGGIHGRSNDGAYSLVLAGGFADEVDRGDEFTYTGSGGKNLAGNKRIGAPSADQTLTNMNRALALNCDAPLDDKIGAESRNWRAGKPVRVIRSFKGRKISKYAPEEGNRYDGIYKVVKYWPEISSSHGFLVWRYLLRRDDVEPAPWTSEGIERSRRLCLRLQYPAGYPSDKEGKKPKGQSKKQPSGTTKRPISDDDCPSASKVYKASDSAEAIEAFQLTPQQQHLIREDCQNQKLWDEVLSHLVEGPNFLKKLEQSFMCVCCQELVYQPVTTECFHNVCKDCLQRSFKAQVFSCPACRHDLGQNYIMIPNEILQTLLDLFFPGYSKGR [UHRF2]”, in the data set with HeLa Kyoto [1], the “solubility in G1/S (log2)” value is -0.401. Besides, the melting temperature in the data set with HeLa Kyoto [2] (cell cycle stage: G1/S) is 44.3 °C; with HeLa Kyoto [2] (cell cycle stage: mitosis) it was 46.9 °C. Moreover, in the data set with HeLa Kyoto [3], the “solubility change mitosis (log2)” value came out at 0.175. In addition, the thermal stability score with HeLa Kyoto [4] (setting [5]) came to 2.81; in the data set with HeLa Kyoto [4] (cell cycle stage: mitosis), 4.34.
Turning to “MPHRKERPSGSSLHTHGSTGTAEGGNMSRLSLTRSPVSPLAAQGIPLPAQLTKSNAPVHIDVGGHMYTSSLATLTKYPDSRISRLFNGTEPIVLDSLKQHYFIDRDGEIFRYVLSFLRTSKLLLPDDFKDFSLLYEEARYYQLQPMVRELERWQQEQEQRRRSRACDCLVVRVTPDLGERIALSGEKALIEEVFPETGDVMCNSVNAGWNQDPTHVIRFPLNGYCRLNSVQVLERLFQRGFSVAASCGGGVDSSQFSEYVLCREERRPQPTPTAVRIKQEPLD [KCTD15]”, in the data set on HeLa Kyoto [1], the “solubility in G1/S (log2)” value came to 0.447. Besides, the figures for the melting temperature in the data set with HeLa Kyoto [2] (cell cycle stage: G1/S) and in the data set with HeLa Kyoto [2] (cell cycle stage: mitosis) were 56 °C and 56.9 °C, respectively. Besides, the “solubility change mitosis (log2)” value in the data set with HeLa Kyoto [3] was -0.0635. Further, the thermal stability score in the data set with HeLa Kyoto [4] (setting [5]) was -2.02; in the data set on HeLa Kyoto [4] (cell cycle stage: mitosis), 0.00454.
For the substance “MGKGCKVVVCGLLSVGKTAILEQLLYGNHTIGMEDCETMEDVYMASVETDRGVKEQLHLYDTRGLQEGVELPKHYFSFADGFVLVYSVNNLESFQRVELLKKEIDKFKDKKEVAIVVLGNKIDLSEQRQVDAEVAQQWAKSEKVRLWEVTVTDRKTLIEPFTLLASKLSQPQSKSSFPLPGRKNKGNSNSEN [NKIRAS1]”, in the data set with HeLa Kyoto [1], the “solubility in G1/S (log2)” value amounted to 0.0841. Moreover, the melting temperature with HeLa Kyoto [2] (cell cycle stage: G1/S) worked out at 48.9 °C; in the data set with HeLa Kyoto [2] (cell cycle stage: mitosis) it was 48.6 °C. In addition, the “solubility change mitosis (log2)” value with HeLa Kyoto [3] is -0.0109. The thermal stability score with HeLa Kyoto [4] (setting [5]) was 2.91e-19; in the data set on HeLa Kyoto [4] (cell cycle stage: mitosis) it was -1.95e-17.
For the substance OCRL, the “solubility in G1/S (log2)” value in the data set on HeLa Kyoto [1] is -0.137. In addition, the results for the melting temperature in the data set with HeLa Kyoto [2] (cell cycle stage: G1/S) and in the data set with HeLa Kyoto [2] (cell cycle stage: mitosis) were 51.4 °C and 51.8 °C, respectively. Besides, the “solubility change mitosis (log2)” value in the data set with HeLa Kyoto [3] is -0.122. For the same substance, the thermal stability score with HeLa Kyoto [4] (setting [5]) was -0.419; with HeLa Kyoto [4] (cell cycle stage: mitosis) it was -0.472.
In the case of CTSD, the “solubility in G1/S (log2)” value in the data set with HeLa Kyoto [1] turned out to be 0.272. Further, the values for the melting temperature in the data set with HeLa Kyoto [2] (cell cycle stage: G1/S) and in the data set on HeLa Kyoto [2] (cell cycle stage: mitosis) were 56.2 °C and 57 °C, respectively. Further, in the data set with HeLa Kyoto [3], the “solubility change mitosis (log2)” value is -0.113. Also, the thermal stability score in the data set with HeLa Kyoto [4] (setting [5]) is 1.02; in the data set on HeLa Kyoto [4] (cell cycle stage: mitosis) it was -1.76.
For the substance “MERSGPSEVTGSDASGPDPQLAVTMGFTGFGKKARTFDLEAMFEQTRRTAVERSRKTLEAREKEEEMNREKELRRQNEDIEPTSSRSNVVRDCSKSSSRDTSSSESEQSSDSSDDELIGPPLPPKMVGKPVNFMEEDILGPLPPPLNEEEEEAEEEEEEEEEEENPVHKIPDSHEITLKHGTKTVSALGLDPSGARLVTGGYDYDVKFWDFAGMDASFKAFRSLQPCECHQIKSLQYSNTGDMILVVSGSSQAKVIDRDGFEVMECIKGDQYIVDMANTKGHTAMLHTGSWHPKIKGEFMTCSNDATVRTWEVENPKKQKSVFKPRTMQGKKVIPTTCTYSRDGNLIAAACQNGSIQIWDRNLTVHPKFHYKQAHDSGTDTSCVTFSYDGNVLASRGGDDSLKLWDIRQFNKPLFSASGLPTMFPMTDCCFSPDDKLIVTGTSIQRGCGSGKLVFFERRTFQRVYEIDITDASVVRCLWHPKLNQIMVGTGNGLAKVYYDPNKSQRGAKLCVVKTQRKAKQAETLTQDYIITPHALPMFREPRQRSTRKQLEKDRLDPLKSHKPEPPVAGPGRGGRVGTHGGTLSSYIVKNIALDKTDDSNPREAILRHAKAAEDSPYWVSPAYSKTQPKTMFAQVESDDEEAKNEPEWKKRKI [WDR70]”, the “solubility in G1/S (log2)” value in the data set on HeLa Kyoto [1] was -0.0649. The melting temperature came to 53.3 °C with HeLa Kyoto [2] (cell cycle stage: G1/S) and 53.2 °C in the data set with HeLa Kyoto [2] (cell cycle stage: mitosis). In addition, the “solubility change mitosis (log2)” value in the data set with HeLa Kyoto [3] was -0.0897. Moreover, the thermal stability score is -0.26 in the data set on HeLa Kyoto [4] (setting [5]) and -0.746 in the data set with HeLa Kyoto [4] (cell cycle stage: mitosis).
